Columns and labels:
Assay in all cases: cell-based or functional assay
[1] = target: human glucagon receptor (human) (UniProt P47871)
[2] = target: T1, human GIP receptor (human) (UniProt P48546)
T1 sequence (looked up): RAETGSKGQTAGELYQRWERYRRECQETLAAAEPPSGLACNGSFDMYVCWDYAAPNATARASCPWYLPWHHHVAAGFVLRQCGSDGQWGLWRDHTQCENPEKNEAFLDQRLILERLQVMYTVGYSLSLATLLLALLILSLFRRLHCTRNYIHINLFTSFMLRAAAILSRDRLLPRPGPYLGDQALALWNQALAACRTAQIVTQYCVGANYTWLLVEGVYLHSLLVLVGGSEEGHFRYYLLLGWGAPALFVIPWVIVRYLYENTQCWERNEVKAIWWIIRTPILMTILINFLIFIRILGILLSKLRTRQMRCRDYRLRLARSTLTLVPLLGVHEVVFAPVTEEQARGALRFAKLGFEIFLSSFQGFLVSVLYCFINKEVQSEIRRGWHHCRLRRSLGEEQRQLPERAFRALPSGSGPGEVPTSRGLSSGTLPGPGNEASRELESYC

hGLP-1R = hGLP-1R (Homo sapiens, UniProt P43220)
Chain of hGLP-1R (P43220 24-463): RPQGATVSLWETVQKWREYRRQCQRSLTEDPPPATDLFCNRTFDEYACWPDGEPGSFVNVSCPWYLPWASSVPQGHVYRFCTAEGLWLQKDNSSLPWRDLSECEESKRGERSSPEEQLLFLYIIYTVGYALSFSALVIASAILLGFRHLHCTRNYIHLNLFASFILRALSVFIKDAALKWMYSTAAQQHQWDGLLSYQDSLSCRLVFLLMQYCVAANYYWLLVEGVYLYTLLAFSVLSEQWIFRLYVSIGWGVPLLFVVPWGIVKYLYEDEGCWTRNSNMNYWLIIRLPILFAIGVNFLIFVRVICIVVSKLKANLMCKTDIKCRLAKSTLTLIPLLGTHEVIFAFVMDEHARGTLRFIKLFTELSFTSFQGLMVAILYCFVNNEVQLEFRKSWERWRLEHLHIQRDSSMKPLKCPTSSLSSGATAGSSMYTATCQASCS

Chain of human glucagon receptor (human) (P47871 26-477): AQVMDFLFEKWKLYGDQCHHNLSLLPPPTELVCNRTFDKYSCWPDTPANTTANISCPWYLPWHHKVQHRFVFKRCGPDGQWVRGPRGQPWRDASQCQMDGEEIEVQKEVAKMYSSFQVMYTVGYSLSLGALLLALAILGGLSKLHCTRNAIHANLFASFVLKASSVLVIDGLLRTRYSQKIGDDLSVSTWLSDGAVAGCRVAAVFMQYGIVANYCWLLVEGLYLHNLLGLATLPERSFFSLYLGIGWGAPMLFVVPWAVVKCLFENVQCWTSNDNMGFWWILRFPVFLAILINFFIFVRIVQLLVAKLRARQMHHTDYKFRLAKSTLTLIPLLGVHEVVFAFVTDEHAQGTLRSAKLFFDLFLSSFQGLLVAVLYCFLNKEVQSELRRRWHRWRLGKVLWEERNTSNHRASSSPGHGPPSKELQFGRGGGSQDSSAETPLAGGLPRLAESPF

B1: Example 1027 (peptide)
chain: YXQGTFTSDXSQXLDXKAQXAFIEXLIEGGPSSGEPPPSGSEE
modifications: Aib, 4Pal, αMeL, Orn, Me4Pal, αMeY; lipidated Lys; C-terminal amide; synthetic construct; SITE 2: note = 2-Aminoisobutyric Acid; SITE 10: note = 3-(4-Pyridyl)-L-alanine; SITE 13: note = alpha-methyl-leucine; SITE 16: note = L-ornithine; SITE 17: note = Lysine is chemically modified through conjugation of the epsilon-amino group of the Lysine side chain with (gamma-Gl)
[1]
  Relative cAMP EC50: 4.99 nM
  cAMP Rel EC50, nM (1% HSA): 1470 nM
[2]
  Relative cAMP EC50: 0.208 nM
  cAMP Rel EC50, nM (1% HSA): 58.1 nM
hGLP-1R
  Relative cAMP EC50: 1.23 nM
  cAMP Rel EC50, nM (1% HSA): 252 nM

B2: Example 1049 (peptide)
chain: YXQGTFTSDFSXXLDXKAQXAFIEXLLEGGPSSGAPPPGGSEE
modifications: Aib, Orn, αMeL, αMeY; acylated Lys; C-terminal amide; synthetic construct; SITE 2: note = 2-Aminoisobutyric Acid; SITE 12: note = L-ornithine; SITE 13: note = alpha-methyl-leucine; SITE 16: note = L-ornithine; SITE 17: note = Lysine is chemically modified through conjugation of the epsilon-amino group of the Lysine side chain with (gamma-Glu)2-CO-(CH2)
[1]
  Relative cAMP EC50: 6.33 nM
  cAMP Rel EC50 (1% HSA): 1280 nM
[2]
  Relative cAMP EC50: 0.24 nM
  cAMP Rel EC50 (1% HSA): 56.2 nM
hGLP-1R
  Relative cAMP EC50: 2.23 nM
  cAMP Rel EC50 (1% HSA): 780 nM

B3: Example 1029 (peptide)
chain: YXQGTFTSDXSQXLDKKAQXAFIEYLIAGGPSSGAPPPSGSEE
modifications: non-natural residues; AEEA-γGlu-C18 diacid on Lys; amide; synthetic construct; SITE 2: note = 2-Aminoisobutyric Acid; SITE 10: note = 3-(4-Pyridyl)-L-alanine; SITE 13: note = alpha-methyl-leucine; SITE 17: note = Lysine is chemically modified through conjugation of the epsilon-amino group of the Lysine side chain with (2-[2-(2-Amino-ethoxy)-ethoxy]-acetyl)
[1]
  cAMP Rel EC50, nM (1% HSA): 511 nM
[2]
  cAMP Rel EC50, nM (1% HSA): 22.3 nM
hGLP-1R
  cAMP Rel EC50, nM (1% HSA): 170 nM

B4: Example 1028 (peptide)
chain: YXQGTFTSDXSQXLDXKAQXAFIEXLIEGGPSSGEPPPSGSEE
modifications: non-natural residues; lysine acylated with C18 diacid; C-terminal amide; synthetic construct; SITE 2: note = 2-Aminoisobutyric Acid; SITE 10: note = 3-(4-Pyridyl)-L-alanine; SITE 13: note = alpha-methyl-leucine; SITE 16: note = L-ornithine; SITE 17: note = Lysine is chemically modified through conjugation of the epsilon-amino group of the Lysine side chain with (gamma-Gl)
[1]
  Relative cAMP EC50: 5.77 nM
  cAMP Rel EC50, nM (1% HSA): 3910 nM
[2]
  Relative cAMP EC50: 0.189 nM
  cAMP Rel EC50, nM (1% HSA): 157 nM
hGLP-1R
  Relative cAMP EC50: 1.34 nM
  cAMP Rel EC50, nM (1% HSA): 986 nM

B5: Example 1033 (peptide)
chain: YXQGTFTSDXSQXLDXKAQXAFIEYLIAGGPSSGAPPPSGSEE
modifications: Aib, 4Pal, Me4Pal, Orn, alpha-methyl-Leu, lipidated Lys, amide; synthetic construct; SITE 2: note = 2-Aminoisobutyric Acid; SITE 10: note = 3-(4-Pyridyl)-L-alanine; SITE 13: note = alpha-methyl-leucine; SITE 16: note = L-ornithine; SITE 17: note = Lysine is chemically modified through conjugation of the epsilon-amino group of the Lysine side chain with (Glu)2-(g)
[1]
  cAMP Rel EC50, nM (1% HSA): 2170 nM
[2]
  cAMP Rel EC50, nM (1% HSA): 23.4 nM
hGLP-1R
  cAMP Rel EC50, nM (1% HSA): 221 nM

B6: Example 1030 (peptide)
chain: YXQGTFTSDXSQXLDKKAQXAFIEYLIAGGPSSGAPPPSGSEE
modifications: synthetic construct; SITE 2: note = 2-Aminoisobutyric Acid; SITE 10: note = 3-(4-Pyridyl)-L-alanine; SITE 13: note = alpha-methyl-leucine; SITE 17: note = Lysine is chemically modified through conjugation of the epsilon-amino group of the Lysine side chain with (Glu)-(gamma-Glu)-CO-(CH2)16-CO2H; SIT
[1]
  Relative cAMP EC50: 9.42 nM
  cAMP Rel EC50, nM (1% HSA): 1830 nM
[2]
  Relative cAMP EC50: 0.122 nM
  cAMP Rel EC50, nM (1% HSA): 21 nM
hGLP-1R
  Relative cAMP EC50: 1.72 nM
  cAMP Rel EC50, nM (1% HSA): 385 nM

B7: Example 1045 (peptide)
chain: YXQGTFTSDXSQXLDXKAQXQFIEXLIEGGPSSGAPPPSGSEE
modifications: non-natural residues; lipidated Lys AEEA-γGlu-C18 diacid; C-term amide; synthetic construct; SITE 2: note = 2-Aminoisobutyric Acid; SITE 10: note = 3-(4-Pyridyl)-L-alanine; SITE 13: note = alpha-methyl-leucine; SITE 16: note = L-ornithine; SITE 17: note = Lysine is chemically modified through conjugation of the epsilon-amino group of the Lysine side chain with (2-[2-(2-
[1]
  cAMP Rel EC50, nM (1% HSA): 1540 nM
[2]
  cAMP Rel EC50, nM (1% HSA): 107 nM
hGLP-1R
  cAMP Rel EC50, nM (1% HSA): 276 nM

B8: Example 1042 (peptide)
chain: YXQGTFTSDXSQXLDXKAQXAFIEXLIEGGPSSGAPPPSGSEE
modifications: not fully specified; non-natural residues; lipidated Lys; C-terminal amide; synthetic construct; SITE 2: note = 2-Aminoisobutyric Acid; SITE 10: note = 3-(4-Pyridyl)-L-alanine; SITE 13: note = alpha-methyl-leucine; SITE 16: note = L-ornithine; SITE 17: note = Lysine is chemically modified through conjugation of the epsilon-amino group of the Lysine side chain with (2-[2-(2-
[1]
  cAMP Rel EC50, nM (1% HSA): 1890 nM
[2]
  cAMP Rel EC50, nM (1% HSA): 84.8 nM
hGLP-1R
  cAMP Rel EC50, nM (1% HSA): 642 nM

B9: Example 1046 (peptide)
chain: YXQGTFTSDXSQXLDXKAQXQFIEXLIEGGPSSGAPPPSGSEE
modifications: non-natural residues, C-terminal amide, acylated Lys with fatty diacid; synthetic construct; SITE 2: note = 2-Aminoisobutyric Acid; SITE 10: note = 3-(4-Pyridyl)-L-alanine; SITE 13: note = alpha-methyl-leucine; SITE 16: note = L-ornithine; SITE 17: note = Lysine is chemically modified through conjugation of the epsilon-amino group of the Lysine side chain with (gamma-Gl)
[1]
  cAMP Rel EC50, nM (1% HSA): 1680 nM
[2]
  cAMP Rel EC50, nM (1% HSA): 85 nM
hGLP-1R
  cAMP Rel EC50, nM (1% HSA): 528 nM

B10: Example 1041 (peptide)
chain: YXQGTFTSDXSQXLDXKAQXAFIEXLIEGGPSSGAPPPSGSEE
modifications: Aib, 4Pal, Orn, Me4Pal, αMeY; acylated lysine; amide; synthetic construct; SITE 2: note = 2-Aminoisobutyric Acid; SITE 10: note = 3-(4-Pyridyl)-L-alanine; SITE 13: note = alpha-methyl-leucine; SITE 16: note = L-ornithine; SITE 17: note = Lysine is chemically modified through conjugation of the epsilon-amino group of the Lysine side chain with (2-[2-(2-
[1]
  cAMP Rel EC50, nM (1% HSA): 1720 nM
[2]
  cAMP Rel EC50, nM (1% HSA): 75.7 nM
hGLP-1R
  cAMP Rel EC50, nM (1% HSA): 316 nM

B11: Example 1034 (peptide)
chain: YXQGTFTSDXSQXLDXKAQXAFIEYLIAGGPSSGAPPPSGSEE
modifications: non-natural residues; lipidated Lys; C-terminal amide; synthetic construct; SITE 2: note = 2-Aminoisobutyric Acid; SITE 10: note = 3-(4-Pyridyl)-L-alanine; SITE 13: note = alpha-methyl-leucine; SITE 16: note = L-ornithine; SITE 17: note = Lysine is chemically modified through conjugation of the epsilon-amino group of the Lysine side chain with D-Glutami
[1]
  cAMP Rel EC50, nM (1% HSA): 1890 nM
[2]
  cAMP Rel EC50, nM (1% HSA): 23 nM
hGLP-1R
  cAMP Rel EC50, nM (1% HSA): 317 nM

B12: Example 1037 (peptide)
chain: YXQGTFTSDXSQXLDKKAQXAFIEYLLAGGPSSGAPPPSGSEE
modifications: AEEA-γGlu-C18 diacid on Lys; non-natural residues; amide; synthetic construct; SITE 2: note = 2-Aminoisobutyric Acid; SITE 10: note = 3-(4-Pyridyl)-L-alanine; SITE 13: note = alpha-methyl-leucine; SITE 17: note = Lysine is chemically modified through conjugation of the epsilon-amino group of the Lysine side chain with (2-[2-(2-Amino-ethoxy)-ethoxy]-acetyl)
[1]
  cAMP Rel EC50, nM (1% HSA): 291 nM
[2]
  cAMP Rel EC50, nM (1% HSA): 13.7 nM
hGLP-1R
  cAMP Rel EC50, nM (1% HSA): 625 nM

B13: Example 1043 (peptide)
chain: YXQGTFTSDXSQXLDXKAQXAFIEXLIEGGPSSGAPPPSGSEE
modifications: non-natural residues, C18 diacid-(γGlu)2 acyl on K, C-terminal amide; synthetic construct; SITE 2: note = 2-Aminoisobutyric Acid; SITE 10: note = 3-(4-Pyridyl)-L-alanine; SITE 13: note = alpha-methyl-leucine; SITE 16: note = L-ornithine; SITE 17: note = Lysine is chemically modified through conjugation of the epsilon-amino group of the Lysine side chain with (gamma-Gl)
[1]
  cAMP Rel EC50, nM (1% HSA): 2240 nM
[2]
  cAMP Rel EC50, nM (1% HSA): 44.9 nM
hGLP-1R
  cAMP Rel EC50, nM (1% HSA): 268 nM

B14: Example 1044 (peptide)
chain: YXQGTFTSDXSQXLDXKAQXAFIEXLIEGGPSSGAPPPSGSEE
modifications: non-natural residues, (γGlu)2-C18 diacid lysine acylation, C-terminal amide; synthetic construct; SITE 2: note = 2-Aminoisobutyric Acid; SITE 10: note = 3-(4-Pyridyl)-L-alanine; SITE 13: note = alpha-methyl-leucine; SITE 16: note = L-ornithine; SITE 17: note = Lysine is chemically modified through conjugation of the epsilon-amino group of the Lysine side chain with (gamma-Gl)
[1]
  cAMP Rel EC50, nM (1% HSA): 2410 nM
[2]
  cAMP Rel EC50, nM (1% HSA): 88.7 nM
hGLP-1R
  cAMP Rel EC50, nM (1% HSA): 1110 nM

B15: Example 1031 (peptide)
chain: YXQGTFTSDXSQXLDXKAQXAFIEYLIAGGPSSGAPPPSGSEE
modifications: non-natural residues; C18 diacid-(γ-Glu)2 acyl on Lys; C-terminal amide; synthetic construct; SITE 2: note = 2-Aminoisobutyric Acid; SITE 10: note = 3-(4-Pyridyl)-L-alanine; SITE 13: note = alpha-methyl-leucine; SITE 16: note = L-ornithine; SITE 17: note = Lysine is chemically modified through conjugation of the epsilon-amino group of the Lysine side chain with (gamma-Gl)
[1]
  cAMP Rel EC50, nM (1% HSA): 1200 nM
[2]
  cAMP Rel EC50, nM (1% HSA): 17.3 nM
hGLP-1R
  cAMP Rel EC50, nM (1% HSA): 152 nM
